Data taken from patent US7537795B2, “Transdermal drug delivery devices having coated microprotrusions” (Alza Corporation, priority 2000, dated 2009).
Values belong to the molecule of their own block, whether it stands above or below them.

Legend:
[1] = guinea pig, in vivo
[2] = Kinetics of drug absorption from hGH tip-coated microprotrusion array systems, plasma hGH by ELISA; assay type: in vivo, hairless guinea pigs
Description: However, on the microprotrusion itself, the coating was found unevenly distributed.
Systems remained on the skin for 5 seconds (n=3) or 5 minutes (n=5). A group of animals (n=5) received a subcutaneous injection of 10 μg hGH. Blood samples were collected at time intervals for plasma hGH determination by ELISA. The hGH dose delivered was extrapolated based on an area under the curve (AUC) calculation compared to IV administration of hGH. […] On average, 5 μg of hGH was delivered in each animal, which accounts for approximately 50% of the coated dose.

[3] = Ovalbumin delivery from microprotrusion systems coated with 200, 50 and 10 mg/ml solutions; assay type: in vivo, hairless guinea pigs; conditions: coating solutions 200, 50 and 10 mg/ml, device removed immediately after application
Description: An experiment similar to that described in Example 1 was performed in the HGPs using the identical microprotrusion systems which were coated with aqueous ovalbumin solutions having ovalbumin concentrations of 200, 50, and 10 mg/ml ovalbumin. In all groups the microprotrusion device was removed immediately after application. Application and analysis were performed identically to that described in Example 1.

[4] = Ovalbumin delivery from tip-coated microprotrusion array systems, skin biopsy fluorimetry; assay type: in vivo, euthanized hairless guinea pigs
Description: The coating was limited to the first 150 μm of the microprojection.
The applied systems comprised a coated microprotrusion array, adhered to the center of a LDPE backing with an adhesive (7 cm^2 disc). […] At the end of the wearing time, the system was removed and the skin wiped clean of any residual drug. The total amount of ovalbumin delivered in the skin during these time intervals was determined by dissolving a 8 mm skin biopsy in hyamine hydroxide (10% in methanol). Quantitation was performed by fluorimetry. […] Close to 100% of the dose had been delivered after 1 hour application time (solid bar).

[5] = Ovalbumin absorption into the skin from dip-coated microprotrusion devices, skin biopsy fluorimetry; assay type: in vivo, hairless guinea pigs; conditions: dip-coated device, 8 mm skin biopsy
Description: The feasibility of coating the microprotrusion devices with ovalbumin was evaluated. A coating solution comprising 200 mg/ml of fluorescein-tagged ovalbumin in water was prepared.
Microprotrusion application was performed using a spring loaded applicator which impacted the system against the animal's skin. […] The average total amount of ovalbumin delivered into the skin (Mavg) during these time intervals was determined by taking an 8 mm skin biopsy at the application site. The skin biopsy sample was then dissolved in hyamine hydroxide (diisobutylcresoxyethoxyethyl) dimethyl) benzylammonium hydroxide, 1 M in ethanol, sold by J. T. Baker (NJ, USA) and the amount of ovalbumin present was determined by fluorimetry. […] Although ovalbumin is not a pharmacological agent used in therapeutics, it is a good model for large potent pharmacologically active agents such as follicle stimulating hormone and erythropoietin.

amount of desmopressin delivered versus Group B [1]: did not increase significantly
average delivery of desmopressin [1]: about 5 μg
average desmopressin delivered [1]: 18 µg
Molecule: NC(=O)CC[C@@H]1NC(=O)[C@H](Cc2ccccc2)NC(=O)[C@H](Cc2ccc(O)cc2)NC(=O)CCSSC[C@@H](C(=O)N2CCC[C@H]2C(=O)N[C@H](CCCN=C(N)N)C(=O)NCC(N)=O)NC(=O)[C@H](CC(N)=O)NC1=O [desmopressin]
Additional drug absorbed after the first two hours [1]: no additional amount of drug was absorbed

Molecule: hGH: Human growth hormone, model for cytokines, particularly interferon
bioavailability ([2]; subcutaneous administration of 10 μg hGH): 65%
hGH delivery, 5 seconds versus 5 minutes wearing times ([2]; tip-coated array): the same
hGH delivered as share of the coated dose ([2]; tip-coated array, 5 seconds or 5 minutes wear): approximately 50%
hGH delivered in each animal, on average ([2]; tip-coated array, 5 seconds or 5 minutes wear, extrapolated from AUC compared to IV): 5 µg

B1: ovalbumin: a 45,000 Dalton polypeptide containing an oligosaccharide side chain; model for large pharmacological agents; fluorescein/FITC-tagged in delivery studies (protein, UniProt P01012 2-386, looked up)
Ovalbumin: GSIGAASMEFCFDVFKELKVHHANENIFYCPIAIMSALAMVYLGAKDSTRTQINKVVRFDKLPGFGDSIEAQCGTSVNVHSSLRDILNQITKPNDVYSFSLASRLYAEERYPILPEYLQCVKELYRGGLEPINFQTAADQARELINSWVESQTNGIIRNVLQPSSVDSQTAMVLVNAIVFKGLWEKAFKDEDTQAMPFRVTEQESKPVQMMYQIGLFRVASMASEKMKILELPFASGTMSMLVLLPDEVSGLEQLESIINFEKLTEWTSSNVMEERKIKVYLPRMKMEEKYNLTSVLMAMGITDVFSSSANLSGISSAESLKISQAVHAAHAEINEAGREVVGSAEAGVDAASVSEEFRADHPFLFCIKHIATNAVLFFGRCVSP
modifications: fluorescein/FITC label
notes: a 45,000 Dalton polypeptide containing an oligosaccharide side chain; model for large pharmacological agents; fluorescein/FITC-tagged in delivery studies
delivery of ovalbumin as a function of amount coated [3]: could be controlled by controlling the amounts coated on the microprotrusions
ovalbumin dose delivered ([4]; 5 seconds wearing time): more than 80%
ovalbumin dose delivered ([4]; 1 hour application time): ~100%
ovalbumin delivered intracutaneously ([5]; 5 second piercing): about 25 μg
ovalbumin delivered intracutaneously ([5]; 1 hour application period): up to 80 μg
